Source: publication PMC6733935, “A convenient and efficient total solid-phase synthesis of DOTA-functionalized tumor-targeting peptides for PET imaging of cancer” (EJNMMI Research, 2019)
Numbered stars: 1 amine (or outer) side, 2 acyl side, 3 side chain; on linkers, the order of the positions; unused ones are H or OH. Square brackets hold non-standard residues; d marks the D form. Peptide text beside a SMILES is read from it. * marks the point of attachment. DOTA = O=C(O)CN1CCN(CC(=O)O)CCN(CC(=O)*)CCN(CC(=O)O)CC1; Cha = N[C@@H](CC1CCCCC1)C(=O)O; X1 = O=C(CCC(=O)[*:2])CN[*:1]; Nle = CCCC[C@H](N)C(=O)O

Tests used:
[1] = target: T1, BN/GRP receptor-positive MDA-MB-231 human breast cancer cells (Homo sapiens, UniProt P30550); assay: Saturation binding assay on MDA-MB-231 cells; details: n = 3-5 experiments
T1 construct: BN/GRP receptor-positive MDA-MB-231, MCF7, T47D human breast cancer, and PC3 human prostate cancer lines; host or cells: MDA-MB-231, MCF7, T47D (human breast cancer), PC3 (human prostate cancer); intact cells
Method: (§1) The cell binding of ^68Ga-radiolabeled peptides into BN/GRP receptor-positive MDA-MB-231, MCF7, T47D human breast cancer, and PC3 human prostate cancer lines (American Type Culture Collection, Rockville, MD, USA) was performed according to the method described previously. In brief, ∼ 300,000 cells (in 300 μL in low-serum media) were incubated with various amounts of radiopeptides, ranging between 0.1 and 25 nM of peptide (prepared from the serial dilutions of HPLC-purified radiopeptides), in duplicate for 60 min at room temperature. The initial concentrations of ^68Ga-labeled peptides were determined according to a well-established HPLC technique with simultaneous detection by UV absorbance. As the amount of BN peptide in the reaction mixture was too small to be detected by UV absorption at 220 nm, the radioactive peptide chromatograms from the HPLC analysis were compared (with UV chromatograms) with those of known concentrations of the corresponding nonradioactive peptides for the mass determination. Incubation was terminated by dilution with cold saline (300 μL) and the cells were pelleted by centrifugation. The cell pellets was then rapidly washed with cold saline to remove any unbound peptide and centrifuged to collect supernatants. Radioactivity in the cell pellet and the washings was measured in a γ-counter. Non-specific binding was determined in the presence of ~ 200-fold molar excess of unlabeled BN peptide. Specific binding is calculated by subtracting the non-specifically bound radioactivity from that of the total binding. The dissociation constant (Kd) was calculated using a plot of cell bound activity versus the concentration of the radioligand using GraphPad Prism software (GraphPad Software Inc., San Diego, CA, USA).

[2] = target: T2, BN/GRP receptor-positive MCF7 human breast cancer cells (Homo sapiens, UniProt P30550); assay: Saturation binding assay on MCF7 cells; details: n = 3-5 experiments
T2 construct: BN/GRP receptor-positive MDA-MB-231, MCF7, T47D human breast cancer, and PC3 human prostate cancer lines; host or cells: MDA-MB-231, MCF7, T47D (human breast cancer), PC3 (human prostate cancer); intact cells
Method: as §1

[3] = target: T3, BN/GRP receptor-positive T47D human breast cancer cells (Homo sapiens, UniProt P30550); assay: Saturation binding assay on T47D cells; details: n = 3-5 experiments
T3 construct: BN/GRP receptor-positive MDA-MB-231, MCF7, T47D human breast cancer, and PC3 human prostate cancer lines; host or cells: MDA-MB-231, MCF7, T47D (human breast cancer), PC3 (human prostate cancer); intact cells
Method: as §1

[4] = target: T4, BN/GRP receptor-positive PC3 human prostate cancer cells (Homo sapiens, UniProt P30550); assay: Saturation binding assay on PC3 cells; details: n = 3-5 experiments
T4 construct: BN/GRP receptor-positive MDA-MB-231, MCF7, T47D human breast cancer, and PC3 human prostate cancer lines; host or cells: MDA-MB-231, MCF7, T47D (human breast cancer), PC3 (human prostate cancer); intact cells
Method: as §1

in vivo = assay: in vivo; parameters: species or system Balb/c mice; details: Balb/c, mouse, iv
Method: Approval for the animal protocol used in this study was obtained from the Institutional Animal Care and Use Committee. Animal studies were conducted according to the international regulations governing the safe and proper use of laboratory animals. In vivo biodistribution were performed on healthy Balb/c mice (n = 3–5 in each group, body weight 19–22 g) at 1 and 2 h after intravenous injection of the HPLC-purified radiopeptide (100 μL, 15–20 μCi, total peptide dose ~ 20 ng) via the lateral tail vein. The mice were sacrificed by cervical dislocation at specified time points and blood samples were withdrawn with a syringe from the heart. Major organs such as lungs, stomach, spleen, pancreas, intestines, liver, kidneys, etc. were isolated, weighed, and radioactivity in each organs and tissues were measured using a γ-scintillation counter. Uptake of radioactivity in the tissues and organs was expressed as the percent injected dose per gram (% ID/g) of tissue/organ, which was calculated by comparison with standard solutions representing 10% of the injected dose per animal. For the clearance studies, radioactivity in the urine with bladder and feces is expressed as the percent of the injected dose per tissue (% ID). Values are expressed as mean ± SD for a group of 3-5 animals at each time point.

MDA-MB-231 tumors = assay: in vivo; type: in vivo, nude mice; details: for Radioactivity in Urine + bladder / Uptake in Blood / Uptake in Intestines (measured without their contents) / Uptake in Kidneys / Uptake in Liver / Uptake in Lungs / Uptake in Muscle / Uptake in Pancreas / Uptake in Spleen / Uptake in Stomach: female, nude, mouse, in vivo; for Uptake in Tumor: nude mice with MDA-MB-231 tumors, mean ± SD, n = 3-5
Method: BN/GRP receptor-positive MDA-MB-231 and PC3 cell lines (American Type Culture Collection, Rockville, USA) were grown as monolayers at 37 °C in a humidified atmosphere containing RPMI-1640 culture media with 10% fetal bovine serum (FBS) in tissue culture flasks. Twenty-four hours prior to conducting the tumor implantation, the media was replaced with RPMI-1640/10% FBS. The cells were grown to 80-90% confluency and harvested by trypsinization. After centrifugation, about 50 million cells were suspended in 1 mL media for implantation into mice. To prepare cells for inoculation, MDA-MB-231 or PC3 cancer cells with media were centrifuged, the media decanted, and the cell pellet was mixed with phosphate-buffered saline (PBS) to reach a concentration of approximately 5 million cells per 100 μL PBS. Human MDA-MB-231 breast cancer xenografts female mouse models were used for in vivo tumor-targeting experiments. For the implantation of tumor xenografts, approximately five million MDA-MB-231 cells in suspension of 100 μL sterile PBS were injected subcutaneously into the left thigh of each mouse. Tumors were allowed to grow for 4-6 weeks by which tumors had reached weights of 200-300 mg. After sufficient growth of tumors, animals were injected with 20-30 μCi of the radiotracers and the animals were sacrificed at specified time points. The uptake of ^68Ga-radiolabeled peptides in the tumors and other major body organs was calculated by γ-counting as described above.

[5] = ~300,000 cells, 0.1-25 nM radiopeptide, 60 min, room temperature, mean ± SD

Bmax (apparent number of binding sites per cell) ([1]; SD < 15%): 1.12 × 10^5 sites/cell
Kd [1, 5]: 14.7 ± 2.24 nM
Bmax (apparent number of binding sites per cell) ([2]; SD < 15%): 1.05 × 10^5 sites/cell
Kd [2, 5]: 12.3 ± 1.94 nM
Bmax (apparent number of binding sites per cell) ([3]; SD < 15%): 9.68 × 10^4 sites/cell
Kd [3, 5]: 16 ± 4.01 nM
Bmax (apparent number of binding sites per cell) ([4]; SD < 15%): 2.63 × 10^5 sites/cell
Kd [4, 5]: 13.5 ± 2.53 nM
SMILES: CCCC[C@H](NC(=O)[C@H](Cc1c[nH]cn1)NC(=O)[C@H](CC1CCCCC1)NC(=O)[C@@H](NC(=O)[C@H](C)NC(=O)[C@H](Cc1c[nH]c2ccccc12)NC(=O)[C@H](CCC(N)=O)NC(=O)[C@H](CS)NC(=O)CNC(=O)CNC(=O)CCC(=O)CNC(=O)CN1CCN(CC(=O)O)CCN(CC(=O)O)CCN(CC(=O)O)CC1)C(C)C)C(=O)N[C@@H](CCSC)C(N)=O [^68Ga-DOTA-ALA-BN Tris-, metal not drawn] ({DOTA}-[X1]GGCQWAV[Cha]H[Nle]M-NH2)
%ID excreted in Feces (in vivo; 1 h): 1.03 ± 0.12 %ID
%ID excreted in Urine (in vivo; 1 h): 71.0 ± 12.45 %ID
Uptake in Blood (in vivo; 1 h): 0.88 ± 0.14 %ID/g
Uptake in Bone (in vivo; 1 h): 0.14 ± 0.03 %ID/g
Uptake in Intestines (measured without their contents) (in vivo; 1 h): 0.85 ± 0.13 %ID/g
Uptake in Kidneys (in vivo; 1 h): 3.83 ± 0.67 %ID/g
Uptake in Liver (in vivo; 1 h): 1.78 ± 0.26 %ID/g
Uptake in Lungs (in vivo; 1 h): 0.42 ± 0.10 %ID/g
Uptake in Pancreas (in vivo; 1 h): 0.98 ± 0.13 %ID/g
Uptake in Spleen (in vivo; 1 h): 0.14 ± 0.03 %ID/g
Uptake in Stomach (in vivo; 1 h): 1.44 ± 0.26 %ID/g
%ID excreted in Feces (in vivo; 2 h): 0.77 ± 0.10 %ID
%ID excreted in Urine (in vivo; 2 h): 78.0 ± 15.0 %ID
Uptake in Blood (in vivo; 2 h): 0.27 ± 0.02 %ID/g
Uptake in Bone (in vivo; 2 h): 0.08 ± 0.01 %ID/g
Uptake in Intestines (measured without their contents) (in vivo; 2 h): 0.64 ± 0.14 %ID/g
Uptake in Kidneys (in vivo; 2 h): 2.76 ± 0.49 %ID/g
Uptake in Liver (in vivo; 2 h): 0.86 ± 0.17 %ID/g
Uptake in Lungs (in vivo; 2 h): 0.19 ± 0.03 %ID/g
Uptake in Pancreas (in vivo; 2 h): 0.82 ± 0.12 %ID/g
Uptake in Spleen (in vivo; 2 h): 0.10 ± 0.02 %ID/g
Uptake in Stomach (in vivo; 2 h): 0.53 ± 0.09 %ID/g
Radioactivity in Urine + bladder (MDA-MB-231 tumors; 1 h): 54.0 ± 5.78 % injected dose per tissue
Uptake in Blood (MDA-MB-231 tumors; 1 h): 0.85 ± 0.15 % ID/g
Uptake in Intestines (measured without their contents) (MDA-MB-231 tumors; 1 h): 1.05 ± 0.18 % ID/g
Uptake in Kidneys (MDA-MB-231 tumors; 1 h): 5.12 ± 0.69 % ID/g
Uptake in Liver (MDA-MB-231 tumors; 1 h): 2.31 ± 0.38 % ID/g
Uptake in Lungs (MDA-MB-231 tumors; 1 h): 2.35 ± 0.33 % ID/g
Uptake in Muscle (MDA-MB-231 tumors; 1 h): 0.39 ± 0.03 % ID/g
Uptake in Pancreas (MDA-MB-231 tumors; 1 h): 1.19 ± 0.15 % ID/g
Uptake in Spleen (MDA-MB-231 tumors; 1 h): 0.44 ± 0.06 % ID/g
Uptake in Stomach (MDA-MB-231 tumors; 1 h): 0.83 ± 0.21 % ID/g
Radioactivity in Urine + bladder (MDA-MB-231 tumors; 2 h): 61.0 ± 7.10 % injected dose per tissue
Uptake in Blood (MDA-MB-231 tumors; 2 h): 0.30 ± 0.04 % ID/g
Uptake in Intestines (measured without their contents) (MDA-MB-231 tumors; 2 h): 0.73 ± 0.13 % ID/g
Uptake in Kidneys (MDA-MB-231 tumors; 2 h): 3.56 ± 0.50 % ID/g
Uptake in Liver (MDA-MB-231 tumors; 2 h): 1.50 ± 0.27 % ID/g
Uptake in Lungs (MDA-MB-231 tumors; 2 h): 0.70 ± 0.16 % ID/g
Uptake in Muscle (MDA-MB-231 tumors; 2 h): 0.23 ± 0.02 % ID/g
Uptake in Pancreas (MDA-MB-231 tumors; 2 h): 0.71 ± 0.10 % ID/g
Uptake in Spleen (MDA-MB-231 tumors; 2 h): 0.35 ± 0.03 % ID/g
Uptake in Stomach (MDA-MB-231 tumors; 2 h): 0.37 ± 0.07 % ID/g
Uptake in Tumor (MDA-MB-231 tumors; 1 h p.i.): 1.78 ± 0.40 % ID/g
Uptake in Tumor (MDA-MB-231 tumors; 2 h p.i.): 1.25 ± 0.21 % ID/g
